Data published in paper doi:10.1101/2022.04.11.487887 (bioRxiv, 2022).
Numbering of substitutions follows the chain as printed. Values belong to the molecule of their own block, whether it stands above or below them. No end group written: not given here.

Tests used:
[1] = biological target: Halo-Xenopus γTuNA-GCN4 F75A (Xenopus laevis | yeast); test: SEC
[2] = biological target: Halo-Xenopus γTuNA-GCN4 wildtype (Xenopus laevis | yeast); test: SEC
[3] = biological target: Halo-Xenopus γTuNA-GCN4 L77A (Xenopus laevis | yeast); test: SEC
[4] = biological target: Halo-Xenopus γTuNA-GCN4 L70A (Xenopus laevis | yeast); test: SEC
[5] = biological target: Halo-3C-AU1 reporter tagged human γTuNA, after PreScission (3C) cleavage (human); test: co-sedimentation
[6] = biological target: Strep-His-TEV-HaloTag-3C-Xenopus γTuNA (Xenopus laevis); test: pull-down
[7] = biological target: Strep-His-Halo-3C-Xenopus γTuNA I67A (Xenopus laevis); test: pull-down
[8] = biological target: Strep-His-Halo-3C-Xenopus γTuNA L70A (Xenopus laevis); test: pull-down
[9] = biological target: Halo-Xenopus γTuNA-GCN4 I67A (Xenopus laevis | yeast); test: SEC
SEC = biological target: the molecule itself; test: SEC

- stoichiometry N [1]: 2
Molecule: Halo-Xenopus γTuNA-GCN4 F75A

- stoichiometry N [2]: 2
Molecule: Halo-Xenopus γTuNA-GCN4 wildtype

- stoichiometry N [3]: 2
Molecule: Halo-Xenopus γTuNA-GCN4 L77A

- stoichiometry N [4]: 2
Molecule: Halo-Xenopus γTuNA-GCN4 L70A

- percent of purified γTuRCs that lost their γTuNA dimer [5]: 66%
- percent of γ-tubulin signal lost from the extract after one round of depletion [6]: > 75%
- percent of the wildtype's γTuRC binding [7]: 85%
- percent of the wildtype's γTuRC binding [8]: 50%
Molecule: Xenopus γ-tubulin ring complex (γTuRC) (from UniProt P23330 1-451; Q5U4M5 1-72)

- stoichiometry N [9]: 2
Molecule: Halo-Xenopus γTuNA-GCN4 I67A

B1: Strep-His-TEV-HaloTag-3C-Xenopus γTuNA (domain or fragment, Xenopus laevis)
chain: MKDFEKQIAELKKENFNLKLRIYFLEEQVQQKCDNSSEDLYRMNIE
modifications: not fully specified (N-terminus)
- stoichiometry N (SEC): 2

B2: Strep-His-TEV-HaloTag-3C-Xenopus γTuNA F75A (domain or fragment, Xenopus laevis)
chain: B1 chain with F16A
modifications: not fully specified (N-terminus)
- binding result (SEC): binds

B3: Strep-His-Halo-3C-Xenopus γTuNA L70A (domain or fragment, Xenopus laevis)
chain: B1 chain with L11A
modifications: not fully specified (N-terminus)
- binding result (SEC): binds

B4: Strep-His-Halo-3C-Xenopus γTuNA L77A (domain or fragment, Xenopus laevis)
chain: B1 chain with L18A
modifications: not fully specified (N-terminus)
- binding result (SEC): binds

B5: Strep-His-Halo-3C-Xenopus γTuNA I67A (domain or fragment, Xenopus laevis)
chain: B1 chain with I8A
modifications: not fully specified (N-terminus)
- binding result (SEC): binds

B6: Strep-His-Halo-3C-Xenopus γTuNA F63A (domain or fragment, Xenopus laevis)
chain: B1 chain with F4A
modifications: not fully specified (N-terminus)
- binding result (SEC): binds

B7: Strep-His-TEV-HaloTag-3C-human γTuNA (domain or fragment)
chain: SPTRARNMKDFENQITELKKENFNLKLRIYFLEERMQQEFHGPTEH
modifications: not fully specified (N-terminus)
- stoichiometry N (SEC): 2
